Source: patent publication US20020061306A1

Biological target: different strains of S. pyogenes (surface of the bacteria)

B1: α2-macroglobulin (native α2M) (protein, UniProt P01023 24-1474, looked up)
chain: SVSGKPQYMVLVPSLLHTETTEKGCVLLSYLNETVTVSASLESVRGNRSLFTDLEAENDVLHCVAFAVPKSSSNEEVMFLTVQVKGPTQEFKKRTTVMVKNEDSLVFVQTDKSIYKPGQTVKFRVVSMDENFHPLNELIPLVYIQDPKGNRIAQWQSFQLEGGLKQFSFPLSSEPFQGSYKVVVQKKSGGRTEHPFTVEEFVLPKFEVQVTVPKIITILEEEMNVSVCGLYTYGKPVPGHVTVSICRKYSDASDCHGEDSQAFCEKFSGQLNSHGCFYQQVKTKVFQLKRKEYEMKLHTEAQIQEEGTVVELTGRQSSEITRTITKLSFVKVDSHFRQGIPFFGQVRLVDGKGVPIPNKVIFIRGNEANYYSNATTDEHGLVQFSINTTNVMGTSLTVRVNYKDRSPCYGYQWVSEEHEEAHHTAYLVFSPSKSFVHLEPMSHELPCGHTQTVQAHYILNGGTLLGLKKLSFYYLIMAKGGIVRTGTHGLLVKQEDMKGHFSISIPVKSDIAPVARLLIYAVLPTGDVIGDSAKYDVENCLANKVDLSFSPSQSLPASHAHLRVTAAPQSVCALRAVDQSVLLMKPDAELSASSVYNLLPEKDLTGFPGPLNDQDNEDCINRHNVYINGITYTPVSSTNEKDMYSFLEDMGLKAFTNSKIRKPKMCPQLQQYEMHGPEGLRVGFYESDVMGRGHARLVHVEEPHTETVRKYFPETWIWDLVVVNSAGVAEVGVTVPDTITEWKAGAFCLSEDAGLGISSTASLRAFQPFFVELTMPYSVIRGEAFTLKATVLNYLPKCIRVSVQLEASPAFLAVPVEKEQAPHCICANGRQTVSWAVTPKSLGNVNFTVSAEALESQELCGTEVPSVPEHGRKDTVIKPLLVEPEGLEKETTFNSLLCPSGGEVSEELSLKLPPNVVEESARASVSVLGDILGSAMQNTQNLLQMPYGCGEQNMVLFAPNIYVLDYLNETQQLTPEIKSKAIGYLNTGYQRQLNYKHYDGSYSTFGERYGRNQGNTWLTAFVLKTFAQARAYIFIDEAHITQALIWLSQRQKDNGCFRSSGSLLNNAIKGGVEDEVTLSAYITIALLEIPLTVTHPVVRNALFCLESAWKTAQEGDHGSHVYTKALLAYAFALAGNQDKRKEVLKSLNEEAVKKDNSVHWERPQKPKAPVGHFYEPQAPSAEVEMTSYVLLAYLTAQPAPTSEDLTSATNIVKWITKQQNAQGGFSSTQDTVVALHALSKYGAATFTRTGKAAQVTIQSSGTFSSKFQVDNNNRLLLQQVSLPELPGEYSMKVTGEGCVYLQTSLKYNILPEKEEFPFALGVQTLPQTCDEPKAHTSFQISLSVSYTGSRSASNMAIVDVKMVSGFIPLKPTVKMLERSNHVSRTEVSSNHVLIYLDKVSNQTLSLFFTVLQDVPVRDLKPAIVKVYDYYETDEFAIAEYNAPCSKDLGNA
% of added radiolabeled α2M bound: 0 to 76%
